Legend:
[1] = biological target: chimeric secretory component (CSC) of the polymeric immunoglobulin receptor (rabbit (domain 1) and human (domains 2 to 5))
[2] = biological target: receptor binding domain (RBD) of the SARS COV-2 spike protein (amino acids 332-532) (SARS-COV-2) (UniProt P0DTC2)

chimeric secretory component (CSC) of the polymeric immunoglobulin receptor (rabbit (domain 1) and human (domains 2 to 5)), sequence (P01833 other isoform, or with tags, fused parts or gaps mutant): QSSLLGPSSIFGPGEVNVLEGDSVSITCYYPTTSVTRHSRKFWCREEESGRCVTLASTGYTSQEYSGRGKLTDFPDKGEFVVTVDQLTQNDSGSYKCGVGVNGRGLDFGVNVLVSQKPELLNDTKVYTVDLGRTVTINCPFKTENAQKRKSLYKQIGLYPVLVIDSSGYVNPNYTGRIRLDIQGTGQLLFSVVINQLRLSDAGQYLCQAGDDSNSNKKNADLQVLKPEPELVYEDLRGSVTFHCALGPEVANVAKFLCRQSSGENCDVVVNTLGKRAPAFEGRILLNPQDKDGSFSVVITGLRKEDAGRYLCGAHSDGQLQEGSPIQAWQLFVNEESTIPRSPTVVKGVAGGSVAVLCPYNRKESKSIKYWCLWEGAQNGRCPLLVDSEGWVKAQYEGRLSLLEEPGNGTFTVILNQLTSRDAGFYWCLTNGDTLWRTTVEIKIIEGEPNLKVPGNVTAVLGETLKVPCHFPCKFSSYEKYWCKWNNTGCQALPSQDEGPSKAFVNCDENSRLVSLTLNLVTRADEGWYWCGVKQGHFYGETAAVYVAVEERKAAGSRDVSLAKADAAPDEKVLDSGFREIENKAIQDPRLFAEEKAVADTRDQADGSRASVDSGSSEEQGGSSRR

“CB6-IgG (SARS-COV-2 specific monoclonal antibody CB6, IgG form)” showed a limit of detection [1] of over 100 µg/mL and a limit of detection [2] of 5 µg/mL.
